# Source: PMC6613838 (Autophagy, 2019)
# B1: GST-UVRAG C-terminal fragment (501–699 aa) (domain or fragment)
# chain: KGHRKRASSENERLQYKTPPPSYNSALAQPVTTVPSMGETERKITSLSSSLDTSLDFSKENKKKGEDLVGSLNGGHANVHPSQEQGEALSGHRATVNGTLLPSEQAGSASVQLPGEFHPVSEAELCCTVEQAEEIIGLEATGFASGDQLEAFNCIPVDSAVAVECDEQVLGEFEEFSRRIYALNENVSSFRRPRRSSDK
# B2: GST-UVRAG FL (natural protein)
# chain: MSASASVGGPVPQPPPGPAAALPPGSAARALHVELPSQQRRLRHLRNIAARNIVNRNGHQLLDTYFTLHLCSTEKIYKEFYRSEVIKNSLNPTWRSLDFGIMPDRLDTSVSCFVVKIWGGKENIYQLLIEWKVCLDGLKYLGQQIHARNQNEIIFGLNDGYYGAPFEHKGYSNAQKTILLQVDQNCVRNSYDVFSLLRLHRAQCAIKQTQVTVQKIGKEIEEKLRLTSTSNELKKKSECLQLKILVLQNELERQKKALGREVALLHKQQIALQDKGSAFSAEHLKLQLQKESLNELRKECTAKRELFLKTNAQLTIRCRQLLSELSYIYPIDLNEHKDYFVCGVKLPNSEDFQAKDDGSIAVALGYTAHLVSMISFFLQVPLRYPIIHKGSRSTIKDNINDKLTEKEREFPLYPKGGEKLQFDYGVYLLNKNIAQLRYQHGLGTPDLRQTLPNLKNFMEHGLMVRCDRHHTSSAIPVPKRQSSIFGGADVGFSGGIPSPDKGHRKRASSENERLQYKTPPPSYNSALAQPVTTVPSMGETERKITSLSSSLDTSLDFSKENKKKGEDLVGSLNGGHANVHPSQEQGEALSGHRATVNGTLLPSEQAGSASVQLPGEFHPVSEAELCCTVEQAEEIIGLEATGFASGDQLEAFNCIPVDSAVAVECDEQVLGEFEEFSRRIYALNENVSSFRRPRRSSDK
# B3: His-CSNK1A1 (enzyme)
# chain: MASSSGSKAEFIVGGKYKLVRKIGSGSFGDIYLAINITNGEEVAVKLESQKARHPQLLYESKLYKILQGGVGIPHIRWYGQEKDYNVLVMDLLGPSLEDLFNFCSRRFTMKTVLMLADQMISRIEYVHTKNFIHRDIKPDNFLMGIGRHCNKLFLIDFGLAKKYRDNRTRQHIPYREDKNLTGTARYASINAHLGIEQSRRDDMESLGYVLMYFNRTSLPWQGLKAATKKQKYEKISEKKMSTPVEVLCKGFPAEFAMYLNYCRGLRFEEAPDYMYLRQLFRILFRTLNHQYDYTFDWTMLKQKAAQQAASSSGQGQQAQTPTGKQTDKTKSNMKGF
# Legend:
# His-SMURF1 (E. coli) = His-SMURF1 (E. coli) (human, UniProt Q9HCE7-2 1-731); test: pull-down
# GST-UVRAG FL = target: B2; test: pull-down
Binder,binding result (His-SMURF1 (E. coli)),binding result (GST-UVRAG FL)
B1,binds,
B2,binds,
B3,,binds
